Experimental data reported in US20080267971A1 (published 2008).

T1: human Angiopoietin-1 (human, UniProt Q15389 20-498, limits assumed)
T1 construct: Bought recombinant protein (R&D Systems 293-AN-025/CF) or supernatant of transfected 293F cells; also called Ang-1; recombinant Ang-1
T1 sequence: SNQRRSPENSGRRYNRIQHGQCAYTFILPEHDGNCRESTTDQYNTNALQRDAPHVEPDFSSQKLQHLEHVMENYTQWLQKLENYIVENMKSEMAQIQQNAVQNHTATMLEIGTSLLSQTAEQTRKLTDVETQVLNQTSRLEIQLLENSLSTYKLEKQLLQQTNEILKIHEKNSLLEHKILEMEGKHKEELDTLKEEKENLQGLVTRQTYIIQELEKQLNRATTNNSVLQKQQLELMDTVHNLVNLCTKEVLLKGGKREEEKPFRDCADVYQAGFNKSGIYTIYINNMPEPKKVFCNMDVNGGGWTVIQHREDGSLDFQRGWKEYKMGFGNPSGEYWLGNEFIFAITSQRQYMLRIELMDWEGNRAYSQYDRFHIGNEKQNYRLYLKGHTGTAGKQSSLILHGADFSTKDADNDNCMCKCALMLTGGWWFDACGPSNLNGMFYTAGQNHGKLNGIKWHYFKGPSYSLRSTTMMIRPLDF

B1: recombinant human Tie2/Fc fusion protein (Fc fusion, UniProt Q02763 23-745, looked up, not shown: a dimerising Fc or GST)
chain: AMDLILINSLPLVSDAETSLTCIASGWRPHEPITIGRDFEALMNQHQDPLEVTQDVTREWAKKVVWKREKASKINGAYFCEGRVRGEAIRIRTMKMRQQASFLPATLTMTVDKGDNVNISFKKVLIKEEDAVIYKNGSFIHSVPRHEVPDILEVHLPHAQPQDAGVYSARYIGGNLFTSAFTRLIVRRCEAQKWGPECNHLCTACMNNGVCHEDTGECICPPGFMGRTCEKACELHTFGRTCKERCSGQEGCKSYVFCLPDPYGCSCATGWKGLQCNEACHPGFYGPDCKLRCSCNNGEMCDRFQGCLCSPGWQGLQCEREGIQRMTPKIVDLPDHIEVNSGKFNPICKASGWPLPTNEEMTLVKPDGTVLHPKDFNHTDHFSVAIFTIHRILPPDSGVWVCSVNTVAGMVEKPFNISVKVLPKPLNAPNVIDTGHNFAVINISSEPYFGDGPIKSKKLLYKPVNHYEAWQHIQVTNEIVTLNYLEPRTEYELCVQLVRRGEGGEGHPGPVRRFTTASIGLPPPRGLNLLPKSQTTLNLTWQPIFPSSEDDFYVEVERRSVQKSDQQNIKVPGNLTSVLLNNLHPREQYVVRARVNTKAQGEWSEDLTAWTLSDILPPQPENIKISNITHSSAVISWTILDGYSISSITIRYKVQGKNEDQHVDVKIKNATITQYQLKGLEPETAYQVDIFAENNIGSSNPAFSHELVTLPESQAPADLGGGK
notes: Bought fusion protein; also called hTie2/Fc; soluble Tie2/Fc
B2: human Angiopoietin-2 (ligand)
chain: YNNFRKSMDSIGKKQYQVQHGSCSYTFLLPEMDNCRSSSSPYVSNAVQRDAPLEYDDSVQRLQVLENIMENNTQWLMKLENYIQDNMKKEMVEIQQNAVQNQTAVMIEIGTNLLNQTAEQTRKLTDVEAQVLNQTTRLELQLLEHSLSTNKLEKQILDQTSEINKLQDKNSFLEKKVLAMEDKHIIQLQSIKEEKDQLQVLVSKQNSIIEELEKKIVTATVNNSVLQKQQHDLMETVNNLLTMMSTSNSAKDPTVAKEEQISFRDCAEVFKSGHTTNGIYTLTFPNSTEEIKAYCDMEAGGGGWTIIQRREDGSVDFQRTWKEYKVGFGNPSGEYWLGNEFVSQLTNQQRYVLKIHLKDWEGNEAYSLYEHFYLSSEELNYRIHLKGLTGTAGKISSISQPGNDFSTKDGDNDKCICKCSQMLTGGWWFDACGPSNLNGMYYPQRQNTNKFNGIKWYYWKGSGYSLKATTMMIRPADF
notes: Mostly bought recombinant protein (R&D Systems 623-AM/CF, 623-AN; biotinylated BT623) or supernatant of transfected 293F cells; also called Ang-2; rhAng-2

How the values were obtained:
[1] = biological target: T1, human Angiopoietin-1; experiment: FACS: inhibition of Ang-1 binding to HEK293F/Tie2 cells
Method: (§1) Cell suspension of 4 million cells/mL in FACS Buffer were prepared, and then aliquoted to a 96-well polypropylene plate with 50 ul per well. […] Cells were washed by centrifuging the plate at 1,200 rpm for 5 minutes, removing the supernatant by aspirating, and resuspending the cells with 200 ul per well of FACS Buffer. Washing procedures were repeated twice. The cells were then suspended with 100 ul of mouse Anti-6×-Histidine antibody diluted to 2 ug/ml in FACS Buffer, and incubated at room temperature for 30 minutes. After washing, the cells were suspended in 100 ul of PE-conjugated goat anti-mouse-IgG, which was diluted 1:100 in FACS Buffer, for incubation at room temperature for 30 minutes. The volume of the samples were brought to 300 ul with FACS Buffer, and measured with FACS Calibur.

[2] = biological target: B2; experiment: FACS: inhibition of Ang-2 binding to HEK293F/Tie2 cells
Method: as §1

[3] = biological target: B1; experiment: FACS competition: binding of His-tagged recombinant human Ang-2 to Tie2 on HEK293F/Tie2 transfectants, soluble Tie2/Fc titrated, n = 3
Method: as §1

EC50 [1] [nM]	EC50 [2] [nM]	binding result [3]	Binder
18.7	25.7		B1
		binds	B2
